According to the supplement of paper PMC9112550, “Optimization of the antimicrobial peptide Bac7 by deep mutational scanning” (BMC Biology, 2022):

Tested on: Escherichia coli TOP10
Assay: shrunken log2 fold change of peptide-encoding DNA abundance (4.5 h post-induction vs induction); higher = less antimicrobial activity (less host growth inhibition)
Conditions: time post-induction: 4.5 h; library: site-saturation at positions 5, 18, 19, 20
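Further: peptides expressed intracellularly from a pBAD plasmid library in pooled LB shake-flask culture, induced with 0.3% L-arabinose, DNA abundance read by NGS, three biological replicates, DESeq2 with apeglm shrinkage.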

| Sequence | shrunken log2 fold change |
| --- | --- |
| RRIRWRPPRLPRPRPRPWQVPRP | 0.172 |
| RRIRHRPPRLPRPRPRPTEQPRP | -0.185 |
| RRIRGRPPRLPRPRPRPHNWPRP | 0.18 |
| RRIRRRPPRLPRPRPRPKVYPRP | -0.0919 |
| RRIRLRPPRLPRPRPRPNIFPRP | 0.104 |
| RRIRYRPPRLPRPRPRPKNHPRP | -0.919 |
| RRIRDRPPRLPRPRPRPYCQPRP | -0.226 |
| RRIRNRPPRLPRPRPRPTKEPRP | -0.0307 |
| RRIRARPPRLPRPRPRPLAPPRP | 0.619 |
| RRIRARPPRLPRPRPRPYFVPRP | -0.122 |
| RRIRRRPPRLPRPRPRPVSFPRP | 0.178 |
| RRIRNRPPRLPRPRPRPGVLPRP | 0.222 |
| RRIRCRPPRLPRPRPRPWESPRP | 0.0539 |
| RRIRGRPPRLPRPRPRPMLTPRP | 1.04 |
| RRIRGRPPRLPRPRPRPEHDPRP | 0.835 |
| RRIRNRPPRLPRPRPRPDANPRP | -0.318 |
| RRIRHRPPRLPRPRPRPNWNPRP | -0.451 |
| RRIRARPPRLPRPRPRPKFPPRP | 2.15 |
| RRIRERPPRLPRPRPRPWNEPRP | -0.351 |
| RRIRARPPRLPRPRPRPFWSPRP | 0.061 |
| RRIRGRPPRLPRPRPRPFYPPRP | -0.62 |
| RRIRKRPPRLPRPRPRPWDPPRP | -0.235 |
| RRIRWRPPRLPRPRPRPPKAPRP | -0.0568 |
| RRIRCRPPRLPRPRPRPELGPRP | 0.211 |
| RRIRGRPPRLPRPRPRPCCCPRP | 0.946 |

| Sequence | shrunken log2 fold change |
| --- | --- |
| RRIRMRPPRLPRPRPRPNTPPRP | 0.188 |
| RRIRGRPPRLPRPRPRPHNDPRP | 0.0426 |
| RRIRMRPPRLPRPRPRPCRYPRP | 0.11 |
| RRIRCRPPRLPRPRPRPYSTPRP | -0.818 |
| RRIRIRPPRLPRPRPRPWFRPRP | -0.129 |
| RRIRPRPPRLPRPRPRPGDDPRP | -0.292 |
| RRIRIRPPRLPRPRPRPGANPRP | 0.0193 |
| RRIRFRPPRLPRPRPRPQGSPRP | -0.0076 |
| RRIRFRPPRLPRPRPRPDPCPRP | -0.191 |
| RRIRHRPPRLPRPRPRPTALPRP | 0.0443 |
| RRIRARPPRLPRPRPRPYHVPRP | -0.963 |
| RRIRLRPPRLPRPRPRPKLKPRP | 0.295 |
| RRIRLRPPRLPRPRPRPKCCPRP | -0.166 |
| RRIRTRPPRLPRPRPRPRWEPRP | 0.0443 |
| RRIRYRPPRLPRPRPRPAGWPRP | 0.366 |
| RRIRIRPPRLPRPRPRPCVTPRP | -0.22 |
| RRIRSRPPRLPRPRPRPVPGPRP | 0.137 |
| RRIRQRPPRLPRPRPRPCEQPRP | -0.105 |
| RRIRNRPPRLPRPRPRPEPHPRP | 0.131 |
| RRIRTRPPRLPRPRPRPTLDPRP | 0.249 |
| RRIRRRPPRLPRPRPRPREGPRP | 1.33 |
| RRIRIRPPRLPRPRPRPIDPPRP | -0.142 |
| RRIRERPPRLPRPRPRPQSIPRP | -2.26 |
| RRIRGRPPRLPRPRPRPRRCPRP | 0.548 |
| RRIRVRPPRLPRPRPRPGRYPRP | 0.303 |

| Sequence | shrunken log2 fold change |
| --- | --- |
| RRIRHRPPRLPRPRPRPRLMPRP | 0.121 |
| RRIRKRPPRLPRPRPRPFSGPRP | -0.172 |
| RRIRWRPPRLPRPRPRPAVYPRP | -0.682 |
| RRIRRRPPRLPRPRPRPSIYPRP | -0.449 |
| RRIRCRPPRLPRPRPRPAEIPRP | -0.0903 |
| RRIRNRPPRLPRPRPRPFYCPRP | -0.937 |
| RRIRCRPPRLPRPRPRPHRQPRP | -0.19 |
| RRIRDRPPRLPRPRPRPSRKPRP | -0.0764 |
| RRIRSRPPRLPRPRPRPWKNPRP | -0.0508 |
| RRIRIRPPRLPRPRPRPLLTPRP | -0.156 |
| RRIRKRPPRLPRPRPRPNQFPRP | 0.103 |
| RRIRFRPPRLPRPRPRPGAQPRP | 0.247 |
| RRIRLRPPRLPRPRPRPTESPRP | 0.0515 |
| RRIRFRPPRLPRPRPRPYWNPRP | -0.388 |
| RRIRVRPPRLPRPRPRPRPKPRP | 0.521 |
| RRIRVRPPRLPRPRPRPFIGPRP | -0.291 |
| RRIRARPPRLPRPRPRPNLRPRP | 0.022 |
| RRIRFRPPRLPRPRPRPRMYPRP | -0.151 |
| RRIRNRPPRLPRPRPRPTIAPRP | -0.277 |
| RRIRWRPPRLPRPRPRPRICPRP | -0.0691 |
| RRIRDRPPRLPRPRPRPVIYPRP | 0.011 |
| RRIRFRPPRLPRPRPRPRTLPRP | 0.165 |
| RRIRFRPPRLPRPRPRPKMSPRP | -0.369 |
| RRIRVRPPRLPRPRPRPFNFPRP | -1.01 |
| RRIRTRPPRLPRPRPRPIFHPRP | -0.204 |

| Sequence | shrunken log2 fold change |
| --- | --- |
| RRIRSRPPRLPRPRPRPYVEPRP | -0.442 |
| RRIRVRPPRLPRPRPRPRHHPRP | -0.0962 |
| RRIRDRPPRLPRPRPRPQQWPRP | 0.0413 |
| RRIRYRPPRLPRPRPRPAIMPRP | -0.196 |
| RRIRCRPPRLPRPRPRPLEHPRP | -0.167 |
| RRIRCRPPRLPRPRPRPSLCPRP | -0.49 |
| RRIRGRPPRLPRPRPRPYEVPRP | 0.0996 |
| RRIRCRPPRLPRPRPRPENPPRP | -0.0628 |
| RRIRARPPRLPRPRPRPNGWPRP | 0.401 |
| RRIRHRPPRLPRPRPRPFTSPRP | -0.197 |
| RRIRPRPPRLPRPRPRPPKGPRP | 0.308 |
| RRIRTRPPRLPRPRPRPKKIPRP | -0.437 |
| RRIRVRPPRLPRPRPRPMKAPRP | 0.0113 |
| RRIRTRPPRLPRPRPRPCPTPRP | 0.0552 |
| RRIRNRPPRLPRPRPRPTTYPRP | -0.228 |
| RRIRNRPPRLPRPRPRPGWKPRP | -0.00965 |
| RRIRNRPPRLPRPRPRPLSYPRP | -0.319 |
| RRIRRRPPRLPRPRPRPDEAPRP | 0.376 |
| RRIRKRPPRLPRPRPRPAFCPRP | 0.422 |
| RRIRWRPPRLPRPRPRPRANPRP | 0.425 |
| RRIRGRPPRLPRPRPRPSAQPRP | 1.26 |
| RRIRFRPPRLPRPRPRPSCLPRP | -0.502 |
| RRIRVRPPRLPRPRPRPIPNPRP | 0.0329 |
| RRIRYRPPRLPRPRPRPMYIPRP | -0.0194 |
| RRIRFRPPRLPRPRPRPLYSPRP | -0.211 |

| Sequence | shrunken log2 fold change |
| --- | --- |
| RRIRIRPPRLPRPRPRPKWLPRP | 0.0546 |
| RRIRMRPPRLPRPRPRPSIAPRP | -0.0688 |
| RRIRYRPPRLPRPRPRPGSAPRP | -0.24 |
| RRIRQRPPRLPRPRPRPAPMPRP | 0.538 |
| RRIRKRPPRLPRPRPRPDCNPRP | -0.00139 |
| RRIRHRPPRLPRPRPRPDYNPRP | -0.901 |
| RRIRPRPPRLPRPRPRPTHPPRP | 0.653 |
| RRIRSRPPRLPRPRPRPTKCPRP | -0.258 |
| RRIRFRPPRLPRPRPRPEFQPRP | 0.0542 |
| RRIRMRPPRLPRPRPRPSVYPRP | -0.335 |
| RRIRARPPRLPRPRPRPSTFPRP | 0.435 |
| RRIRVRPPRLPRPRPRPYQAPRP | -0.293 |
| RRIRYRPPRLPRPRPRPPQHPRP | -0.171 |
| RRIRFRPPRLPRPRPRPAYFPRP | -0.108 |
| RRIRERPPRLPRPRPRPIDPPRP | 0.0954 |
| RRIRLRPPRLPRPRPRPRDFPRP | -0.206 |
| RRIRNRPPRLPRPRPRPIAGPRP | -0.0235 |
| RRIRWRPPRLPRPRPRPVVAPRP | 0.28 |
| RRIRWRPPRLPRPRPRPHKHPRP | -0.117 |
| RRIRWRPPRLPRPRPRPRHAPRP | 0.0251 |
| RRIRVRPPRLPRPRPRPCMLPRP | -0.606 |
| RRIRTRPPRLPRPRPRPRCNPRP | -0.36 |
| RRIRDRPPRLPRPRPRPRDAPRP | 0.59 |
| RRIRPRPPRLPRPRPRPDCFPRP | 0.112 |
| RRIRCRPPRLPRPRPRPTYRPRP | 0.0231 |

| Sequence | shrunken log2 fold change |
| --- | --- |
| RRIRIRPPRLPRPRPRPFRAPRP | -0.332 |
| RRIRWRPPRLPRPRPRPSVRPRP | 0.117 |
| RRIRIRPPRLPRPRPRPALSPRP | 0.114 |
| RRIRPRPPRLPRPRPRPNDQPRP | 1.93 |
| RRIRFRPPRLPRPRPRPVLSPRP | -0.0531 |
| RRIRGRPPRLPRPRPRPHAHPRP | 0.895 |
| RRIRVRPPRLPRPRPRPFTHPRP | -0.222 |
| RRIRYRPPRLPRPRPRPPYNPRP | -1.41 |
| RRIRGRPPRLPRPRPRPSYQPRP | -0.0215 |
| RRIRVRPPRLPRPRPRPFTCPRP | -0.216 |
| RRIRFRPPRLPRPRPRPPPEPRP | 1.28 |
| RRIRARPPRLPRPRPRPFGEPRP | 0.15 |
| RRIRSRPPRLPRPRPRPWHCPRP | -0.403 |
| RRIRMRPPRLPRPRPRPGYVPRP | -0.118 |
| RRIRERPPRLPRPRPRPNPPPRP | 0.181 |
| RRIRARPPRLPRPRPRPDYWPRP | 0.139 |
| RRIRRRPPRLPRPRPRPVLWPRP | 0.886 |
| RRIRCRPPRLPRPRPRPEQPPRP | 0.581 |
| RRIRCRPPRLPRPRPRPTANPRP | 0.0466 |
| RRIRTRPPRLPRPRPRPQKNPRP | -0.419 |
| RRIRRRPPRLPRPRPRPIHVPRP | 0.03 |
| RRIRDRPPRLPRPRPRPKQGPRP | 0.0662 |
| RRIRQRPPRLPRPRPRPSKKPRP | 0.0216 |
| RRIRNRPPRLPRPRPRPGGQPRP | 0.0599 |
| RRIRERPPRLPRPRPRPNALPRP | -0.247 |
